The target in this series is SarR (Staphylococcus aureus, UniProt Q2FEJ8 SEQ:1-115). The series can be described thus: footprint; protected region nt 81-108 within the 109-bp fragment. The conditions noted are these: tags: untagged, pET11b expressed in E. coli BL21(DE3)pLysS; chain copies: 2 (inferred).
Sequence of SarR (Q2FEJ8 whole entry, the tested form may be a part): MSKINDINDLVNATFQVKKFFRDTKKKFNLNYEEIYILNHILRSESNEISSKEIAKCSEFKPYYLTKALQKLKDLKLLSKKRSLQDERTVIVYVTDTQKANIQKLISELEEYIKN

B1: sarA P2 protected region (nt 81-108) (dsDNA)
DNA 1: TAAATTAATGTTATTTTTTAATAATTTA
DNA 2: TAAATTATTAAAAAATAACATTAATTTA
For B1, the binding result is “binds”.
